The record followed here is publication PMC4335501.

Assay [1] concerns the target 52SFK N308E (human adenovirus type 52 (HAdV-52)). Nature of the assay: gas-phase electrophoretic mobility molecular analysis (GEMMA); 20 mM ammonium acetate pH 7.8, 0.005% Tween 20; 0.05 mg/ml (52SFK wt, mutants 1-3) or 0.06 mg/ml (mutants 4-6).
The target in assay [2] is 52SFK N318A (human adenovirus type 52 (HAdV-52)). The description is as above.
Assay [3] has as its target 52SFK R316A (human adenovirus type 52 (HAdV-52)). The assay is described as above.
Assay [4] addresses 52SFK R316A/N318A (human adenovirus type 52 (HAdV-52)). The description is as above.
The target of assay [5] is 52SFK R316E (human adenovirus type 52 (HAdV-52)). The assay is described as above.
Assay [6] concerns the target 52SFK R316E/N318A (human adenovirus type 52 (HAdV-52)). The assay is described as above.
Assay [7] addresses Recombinant human CAR (CXADR Fc chimera; full length extracellular D1D2 domain) (human) (UniProt P78310). As to the kind of experiment: SPR; CAR-D1D2 Fc chimera or CAR-D1 amine-coupled to CM5 (900-1100 RU); 52LFK or 52SFK as analytes, two-fold series 8 nM to 2 μM; 25°C; HBS-EP+ (10 mM HEPES, 150 mM NaCl, 3 mM EDTA, 0.005% P20, pH 7.4); Biacore T100. On the technique in general: Surface plasmon resonance follows binding to a sensor surface in real time, without labels.

The target in another assay is soluble CAR-D1. Described as above.
Assay [8] has as its target HAdV-52 short fiber knob (human adenovirus type 52 (HAdV-52)). As to the kind of experiment: crystal structure; 52SFK crystals soaked with 20 mM 2-O-methyl sialic acid; 1.65 Å; threefold NCS.
For assay [9] the target is unchanged. As to the kind of experiment: gas-phase electrophoretic mobility molecular analysis (GEMMA); 20 mM ammonium acetate pH 7.8, 0.005% Tween 20; 0.05 mg/ml (52SFK wt, mutants 1-3) or 0.06 mg/ml (mutants 4-6).
Assay [10] has as its target HAdV-5 virion (Ad75; source ATCC). Nature of the assay: radioligand binding; competition: soluble CAR-D1 preincubated with 35S-labelled virions for 1 h on ice before the virions were added to A549 cells; read-out is the cell-bound radioactivity; concentration of CAR-D1 not stated.
The target in assay [11] is HAdV-52 virion (strain TB3-2243) (human adenovirus type 52 (HAdV-52)). Described as above.

For orientation: stoichiometry N means a count of units in the complex or per binding partner. What is called pKd is −log10 of the Kd, conventionally taken in molar units.

pKd: −log10 of the molar value.

Sequence of Recombinant human CAR (CXADR Fc chimera; full length extracellular D1D2 domain) (human) (P78310 20-237, change not shown): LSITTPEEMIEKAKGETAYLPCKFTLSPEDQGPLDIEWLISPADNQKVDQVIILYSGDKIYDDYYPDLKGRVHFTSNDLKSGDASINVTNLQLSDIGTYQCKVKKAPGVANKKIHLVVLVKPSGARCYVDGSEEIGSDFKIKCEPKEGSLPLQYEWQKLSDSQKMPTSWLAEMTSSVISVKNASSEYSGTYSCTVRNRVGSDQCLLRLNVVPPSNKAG

The substance 52SFK N308E (domain or fragment) showed a stoichiometry N in [1] of 3.

In turn, 52SFK N318A (domain or fragment) yielded a stoichiometry N in [2] of 3.

In assay [3], 52SFK R316A (domain or fragment) registered a stoichiometry N of 3. Substance 52SFK R316A/N318A (domain or fragment) registered a stoichiometry N in [4] of 3.

The substance 52SFK R316E (domain or fragment) gave a stoichiometry N in [5] of 3. With 52SFK R316E/N318A (domain or fragment), in assay [6], the stoichiometry N came out at 3. Turning to “HAdV-52 long fiber knob (domain or fragment)”, the negative logarithm of the Kd (pKd) in [7] is 8.30; in the assay with soluble CAR-D1 it was 8.59.

As for “HAdV-52 short fiber knob (domain or fragment)”, the stoichiometry N in assay [8] and in [9] was 3 throughout. Consider soluble CAR-D1 (domain or fragment), for which the percent reduction of virion binding to A549 cells came to 50% in assay [10] and 20% in assay [11].
